Laboratory results from PMC1262730, “Purification and kinetic studies of recombinant gibberellin dioxygenases” (BMC Plant Biology, 2005).

Substrate: C=C1C[C@]23C[C@@]1(O)CC[C@H]2[C@@]12CCC[C@@](C)(C(=O)O1)[C@H]2[C@@H]3C(=O)O
Assay: tritiated water release from [3H3]GA20, Michaelis-Menten fit (Origin)
Assay type: biochemical, Arabidopsis thaliana
Settings: labelled compound (possible tritium isotope effect), 4 mM 2-oxoglutarate, 0.5 mM FeSO4, 4 mM ascorbate, 4 mM DTT, BSA, catalase, 100 mM Tris-HCl pH 7.9, 30 °C

B1: AtGA3OX4 (Arabidopsis thaliana) (protein)
chain: MPSLAEEICIGNLGSLQTLPESFTWKLTAADSLLRPSSAVSFDAVEESIPVIDLSNPDVTTLIGDASKTWGAFQIANHGISQKLLDDIESLSKTLFDMPSERKLEAASSDKGVSGYGEPRISPFFEKKMWSEGFTIADDSYRNHFNTLWPHDHTKYCGIIQEYVDEMEKLASRLLYCILGSLGVTVEDIEWAHKLEKSGSKVGRGAIRLNHYPVCPEPERAMGLAAHTDSTILTILHQSNTGGLQVFREESGWVTVEPAPGVLVVNIGDLFHILSNGKIPSVVHRAKVNHTRSRISIAYLWGGPAGDVQIAPISKLTGPAEPSLYRSITWKEYLQIKYEVFDKAMDAIRVVNPTN
notes: pET32 Xa/LIC N-terminal poly(His)-thioredoxin fusion expressed in E. coli BL21 (DE3), tag cut at engineered thrombin site, Superdex 75
  Km: 0.82 µM
